Assay results taken from US20230218735A1 (Pfizer, published 2023).

B1: hCDIFA-12 (antibody, V domains shown)
VH: QVQLVQSGAEVKKPGASVKVSCKASGYTFSDSYMHWVRQAPGQGLEWMGRINPNSGGTNYAQKFQGRVTMTRDTSIKTVYMELSRLRSDDGAIYYCARGMGRTTTGLFDLWGQGTLVTVSS
VL: DIVMTQSPATLSLSPGERATLSCKANESVGSYLVWYQQKFGQAPRLLIYDASNRATGIPARFSGSGSGTDFTLTISSLEPEDFAVYYCQQRSNWPPTFGGGTKVDIKR
B2: hCDIFA-28 (antibody, V domains shown)
VH: QVQLVQSGAQVKKPGSSVKVSCKASGYAFISYGITWVRQAPGQGLEWMGWISAYNGDTNYAQKFQGRVTMTTDTSTNTAYMELRSLRSDDTAVYYCARALTRVAVALPHPYWGQGTLVTVSS
VL: not shown
B3: hCDIFA-20 (antibody, V domains shown)
VH: EVQLVQSGAEVRIPGASVKVSCKASGFTFNDYYIHWVRQAPGQGLEWMGWINAHNGVTSYAQNFQDRVTMTRDTSITTAYMDLSRLRSDDTAVYYCARDCSTSSCFDHWGQGSLVTVSS
VL: SYELTQPPSLSVAPGKTAKITCGGNNIGSKGVHWYQQRPGQAPVLVIYYNADRPSGIPERFSGSNSGNTATLTISRVEAGDEADYFCQVWDGDSAHRVFGGGTKLTVLG
B4: hCDIFA-23 (antibody, V domains shown)
VH: QVQLVQSGGGVVQPGRSLRLSCAASGFTFSQYSIHWVRQAPGKGLEWVAVMSYDGRNKYYADSVKGRFTISGDNSRNTLYVQMNSLRAEDTAIYYCARDLIKAAMVPAFDIWGQGTMVTVSS
VL: TALTQPRSVSGSPGQSVTISCTGTNSDVADYNYVSWYQHHPGKAPKLMIYDVTKRPSGVPDRFSGSKSGNTASLTISGLQAEDEADYYCCSYAARYTFGGGTKLTVLG
B5: hCDIFA-2 (antibody, V domains shown)
VH: QVQLVESGGGLVQPGGSLRLSCAASGFTFSSYAMSWVRQAPGKGPEWVSNIIGSGGSTYFTDSVKGRFTISRDNSKNTVYLQMNSLRAEDTAVYYCAKEGCRGYDSGNYFAPKMFCLWGQGTLVTVSS
VL: NFMLTQPASVSGSPGQSITISCTGTSSDIGAYNYVSWYQQHPGTAPKLMIYEVSHRPSGVSNRFSGSKSGDTASLTISGLQAEDEADYYCSSYTTSITYVFGTGTKLTVLG
B6: hCDIFA-14 (antibody, V domains shown)
VH: EVQLVQSGAEVKKPGSSVKVSCKASGGTFRSYAISWVRQAPGQGLEWMGGFIPIPGIRNYAQKFQGRLTISADESTSTGYMELSSLTSEDTAVYYCARGLGRVSHYFYYMDVWGKGTTVTVSS
VL: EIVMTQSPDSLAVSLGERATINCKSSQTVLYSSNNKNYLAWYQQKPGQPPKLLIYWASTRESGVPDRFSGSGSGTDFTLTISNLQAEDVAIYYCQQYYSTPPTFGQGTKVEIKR
B7: hCDIFA-13 (antibody, V domains shown)
VH: QVQLVQSGAEVKKPGASVTVSCRTSGYTFTNDYVHWVRQAPGQGLEWVGLINPSGGNTVYAQSFQGRVTMTRDTSTSTVYMELSSLRSEDTAVYYCARVVHDYGKFDPWGQGTPVTVSS
VL: SYELTQPASVSGSPRQSITISCTGTSSDVGNYNLVSWYQQYPGKAPRLIIFEVRQRPSGVSNRFSGSKSGNTASLTISGLQAADEADYYCCSYAGRSIWVFGGGTKLTVLG
B8: hCDIFA-22 (antibody, V domains shown)
VH: QVQLVQSGGGLVQPGGSLRLSCSASGFTFSSYAMHWVRQAPGKGLEYVSAISSNGGSTYYADSVKGRFTISRDNSKNTLYLQMSSLRAEDTAVYYCVRAAAGNWFDPWGQGTLVTVSS
VL: AIRMTQSPSSVSASVGDRVTITCRASQGISSWLAWYQQKPGKAPKLLIYAASSLQSGVPSRFSGSGSGTDFTLTISSLQPEDFATYYCQQANSFPLTFGGGTKVDIKR
B9: hCDIFA-3 (antibody, V domains shown)
VH: EVQLVESGGGVVQPGRSLRLSCAASGFTFSSYAMHWVRQAPGKGLEWVAVISKDGDNKYYTDPLKGRFTISRDNSKNTLYLQMISLRGEDTAVYYCARDLNIWSGYYLRTINYYMDVWGKGTTVTVSS
VL: DIVMTQSPSFLSASVGDRVTITCRASQGIRNDLGWYQQKPGKAPKLLIYAASTLQSGVPSRFSGSGSGTEFTLTISSLQPEDFATYYCQQPGSHPPFGGGAKLEIKR
B10: hCDIFA-38 (antibody, V domains shown)
VH: QVQLVESGPALVKPTQTLTLTCTFSGFSLSSIGMCVSWIRQPPGKALEWLARIDWDDSKYYSPSLQARLAISKDTSKNQVVLTMTNVDPMDAGTYYCARTSATLTGPSRVFDYWGQGSLVTVSS
VL: DVVMTQSPATLSVSPGERATLSCRASQSVRFNLAWYQQKPGQAPRLLISGASTRATGIPARFSGSGSGTEFTLTISSLQSEDFAVYYCQQYNNWPPLTFGGGTKVEIKR
B11: hCDIFA-41 (antibody, V domains shown)
VH: QVQLQESGPGLVKPSQTLSLTCTVSGDSISSNQYYWTWIRQPAGKGLEWIGQIESAYFTNYNPSLKGRVTISGDASKNVLSLTLTSVTAADTALYWCAREAGGGLGYCTGGRCQFSGYYYYGLDVWGQGTTVTVSS
VL: QSALTQPPSVSAAPGQTVTISCSGSHSNIGNNYVSWYQQLPGTAPRRLIYDTDKRPSGIPDRFSGSKSGTSATLVITGLRAGDEADYYCGTWDGSLSAGVFGGGTKLTVLG
B12: hCDIFA-39 (antibody, V domains shown)
VH: QVQLQESGPGLVKPSETLSLTCTLSGGSISSDNYYWGWVRQPPGKGLEWIGSIYYSGSTYYNPSLKSRVFISVDMSKNQFSLKLSSVTAADTAVYYCARHTQGLGILRYFDWWTRPFDYWGQGTLVTVSS
VL: DIQMTQSPSSLSASVGDRVTITCRASQNINTYLSWYRQKPGKAPELLIYAASNLQSGVPSRFSGSGSGTDFTLTIHSLQPEDFATYYCQQSYTTLTFGGGTKVEIKR
B13: hCDIFA-36 (antibody, V domains shown)
VH: QVQLVQSGGGLVQPGRSLRLSCAASGFAFDDYALHWVRQVPGKGLEWVSGISWNSDSIAYADSVKGRFTISRDNAKNSLYLQMNGLRAEDTALYYCAKDRTIASAGIPDEFQHWGQGTLVTVSS
VL: DIVMTQSPATLSVSPGERATLSCRASQSVSYKVAWYQQKPGQAPRLLIYGASTRDTGIPARFSGSGSGTDFTLTISSLQSEDSAVYYCQQYSNWPTTFGQGTKVEIKR
B14: hCDIFA-18 (antibody, V domains shown)
VH: QVQLVQSGAEVKKPGASVKVSCKASGYTFTSYAMHWVRQAPGQRLEWMGWINAGNGNTKYSQEFQGRVTITRDTSASTAYMELSSLRSEDMAVYYCARAHLPGYCSSTSCYIMYVWGKGTTVTVSS
VL: not shown
B15: hCDIFA-16 (antibody, V domains shown)
VH: QVQLQESGPGLVKPSETLSLTCTVSGDSISDYYWSWIRQPPGRGLEWIGYIYYSGSTNYNPSLKSRLTISVDTSKNQFSLNLSSVTAADTAVYYCARSMGHYDFWNTYFPCFDPWGQGTLVTVSS
VL: EIVMTQSPGTLSLSPGERATLSCRASQSVSSGYLAWYQQKPGQAPRLLIYGASSRATGIPDRFRGSGSGTDFTLTISRLEPEDFAVYYCQQYGSSPLTFGGGTKLEIKR
B16: hCDIFA-34 (antibody, V domains shown)
VH: QVQLVESGGDLIQPGESLRLSCVASGFTVGSHYMTWVRQAPGKGLEWVSTIYSGGTTKYADSVKGRFTISRDNSKNTLFLQMNSLRTEDTAVYFCARGSAFSSSWWLVDFWGQGTLVTVSS
VL: SYELTQPPSVSVAPGKTARITCEDNYVGGNNVHWYQQKPGQAPVLVVSDDNARPSGIPERVSGSKSGNTATLIINRVEVGDEADFYCQVWDSSRDRVLFGGGTKLTVLG
B17: hCDIFA-30 (antibody, V domains shown)
VH: EVQLVESGAEVKRPGASVKVSCRTSAYAFTNYFMHWVRQAPGQGLEWVAVINLSGGNTNYAQSFQGRVNMTRDTSTSTVYMELSSLRSEDTAVYFCAIGGIWFGEYPNWFDPWGQGTLVTVSS
VL: NFMLTQPPSVSAAPGRKVTVSCSGSSSNIGNNYVSWYQQFPGTAPKLLIYDNNKRHSGIPARFSGSKSGTSATLGITGLQTGDEADYYCATWDSSLKYVVFGGGTKLTVLG
B18: hCDIFA-33 (antibody, V domains shown)
VH: QVQLVQSGGGLVQPGGSLRLSCVASGFTFSSYAMTWVRQAPGMGLEWVSTISLSGSTIYYADSVKGRFTISRDNPKNTLYLQMNSLRAEDTAVYYCAEGQGAFDFWGQGTMVTVSS
VL: NFMLTQPPSASGTPGQRVTISCSGSTSNIGGNTVNWYQQLPGTAPKLLIYSNIQRPSGVPDRFSGSKSGTSASLAIRGLRSEDEADYYCSTWDDSRKGVVFGGGTKLTVLG
B19: hCDIFA-29 (antibody, V domains shown)
VH: EVQLLESGAEVKKPGASIRVSCKASGHSFTDSFTDYYFHWVRQAPGQGLEWMGMINPSVGSTNYAQKFQGRVTLTRDTSTHTVYMELSSLRSEDTAVYFCARDPWFCSRGTSCYYFGLWGQGTLVTVSS
VL: DIQLTQSPSSLSASVGDSVTITCRASQSISTYLNWYQQKPGKAPKLLIYDASSLLSGVPSRFSGGGSGTDFTLTISSLQPEDFATYYCQQSDISPPVFGRGTKVEIKR
B20: hCDIFA-48 (antibody, V domains shown)
VH: QVQLVQSGAEVKKPGASVKVSCKASGYTFTTYAMHWVRQAPGHRLEWMGWINPVNGNSKHSQNFQGRVTITRDTSASTVYMELSSLRSEDTAVYYCARDTSSGVILANNFDYWGQGTLVTVSS
VL: DIVMTQSPATLSLSPGERATLSCRASQSVDSYLTWYQQKPGQAPRLLIYDSSNRATGIPARFSGSGSGTDFTLTISSLEPEDFAVYYCHQRSNWPNTFGQGTKVEIKR
B21: hCDIFA-26 (antibody, V domains shown)
VH: EVQLLESGAEVKKPGESLRISCNCSGYSFTSYWIGWVRQMPGEGLEWMGLIQPGGDSYPRYSPSFQGQVTISADKSISTAYLQWRSLKASDTAMYYCARRGFDHWGQGTLVTVSS
VL: NFMLTQPPSASGAPGQRVTISCSGSSSNIGSNTVNWYQQLPGTAPKLLIYSNIQRPSGVPDRFSGSKSGTSASLAISGLQSDDEADYYCSAWDDSLNGYVFGTGTKVTVLG

molecular target: C. difficile toxin A (Clostridium difficile, UniProt P16154 1-2710); assay: cell-based or functional assay

| Binder | EC50 TcdA [RLU], toxin neutralization assay (TNA) on IMR90 cells |
| --- | --- |
| B1 | ~115 RLU |
| B2 | 25800 RLU |
| B3 | 3200 RLU |
| B4 | 136 RLU |
| B5 | ~38 RLU |
| B6 | 19800 RLU |
| B7 | 26300 RLU |
| B8 | ~16 RLU |
| B9 | 199000 RLU |
| B10 | 10500 RLU |
| B11 | 673 RLU |
| B12 | 400 RLU |
| B13 | 426000 RLU |
| B14 | 1330 RLU |
| B15 | 298 RLU |
| B16 | 247 RLU |
| B17 | 1480 RLU |

molecular target: T1, genetically modified and chemically inactivated C. difficile toxoid A (Clostridium difficile, UniProt P16154 2-2710); assay: ITC
T1 construct: also called TxdA; the toxoid

| Binder | DH | Kd | Stoichiometry |
| --- | --- | --- | --- |
| B18 | -3 kcal/mol | 31 nM | 0.83 |
| B19 | -15.6 kcal/mol | 74 nM | 9.2 |
| B20 | -7.2 kcal/mol | 87 nM | 0.77 |
| B21 | -9.1 kcal/mol | 8 nM | 1.98 |
